In US5336488A, “Method of treating or preventing mastitis in animals with involuting mammary glands by administering recombinant cytokines” (American Cyanamid Company, priority 1992, dated 1994):

Experiment: Milk production in lactations immediately following dry cow therapy
Type: in vivo, bovine (dairy cows)
Details: FIG. 6
Protocol: FIG. 6: Milk Production Early in Lactation Before and After Intramammary Infusion of r-BoIL-2 as a Dry Cow Therapy
Mean milk production in kilograms; (S.D.) is shown for 4 cows for the first six days after the initiation of lactation for the lactation immediately prior to treatment and immediately following treatment. Production after r-BoIL-2 treatment or for the same time period for the lactation prior to treatment is monitored. Total dose of r-BoIL-2 received by each treated cow is 2 mg. Three cows are completing their second lactation and one is completing its third lactation at the time of r-BoIL-2 therapy. Post-treatment production from initiation of the third or fourth lactation is compared to the production for the first 6 days after initiation of the second or third lactation (pre-treatment) respectively of the same animals .
The effects of r-BoIL-2 on possible milk production after dry-cow therapy are also evaluated. Milk production for three dairy cows for the first five days of the lactation cycle (second or third lactation) prior to r-BoIL-2 treatment is compared to the milk production for the first five days of the lactation cycle (third or fourth lactation) immediately following r-BoIL-2 treatment, FIG. 6.

B1: recombinant bovine interleukin-2 (protein, UniProt P05016 21-155, looked up)
Interleukin-2: APTSSSTGNTMKEVKSLLLDLQLLLEKVKNPENLKLSRMHTFDFYVPKVNATELKHLKCLLEELKLLEEVLNLAPSKNLNPREIKDSMDNIKRIVLELQGSETRFTCEYDDATVNAVEFLNKWITFCQSIYSTMT
notes: recombinant bovine interleukin-2, obtained from IMMUNEX Corp. Seattle, WA
For B1, the “improvement in milk production at the following lactation” value (first five days of lactation vs prior lactation) was 80% and the “inhibition of milk production at the following lactation” value (first five days of lactation) was “No inhibition of milk production”.
